B1: active-Monalysin (trypsin-treated endogenous pro-Monalysin) (natural protein, UniProt Q1I8U1 34-271, looked up)
chain: NLSGRFDQYPTKKGDFAIDGYLLDYSSPKQGCWVDGITVYGDIYIGKQNWGTYTRPVFAYLQYVETISIPQNVTTTLSYQLTKGHTRSFETSVNAKYSVGANIDIVNVGSEISTGFTRSESWSTTQSFTDTTEMKGPGTFVIYQVVLVYAHNATSAGRQNANAFAYSKTQAVGSRVDLYYLSAITQRKRVIVPSSNAVTPLDWDTVQRNVLMENYNPGSNSGHFSFDWSAYNDPHRRY
notes: Monalysin of Pseudomonas entomophila, product of trypsin cleavage of the pro-form; monomer of 27 kDa on SDS-PAGE; also called active-form; cleaved mature form; source: purified pro-Monalysin from P. entomophila L48, treated with trypsin (0.2 mg/mL, 25°C, 10 min)

Experiments:
[1] = biological target: endogenous pro-Monalysin (Pseudomonas entomophila (endogenous in strain L48)) (UniProt Q1I8U1); assay: high-speed atomic force microscopy; on mica surface in PBS buffer, room temperature (24-26°C)
[2] = biological target: endogenous pro-Monalysin (Pseudomonas entomophila (endogenous in strain L48)) (UniProt Q1I8U1); assay: high-speed atomic force microscopy; on mica surface in low salt buffer (30 mM NaCl, 10 mM sodium phosphate, pH 7.0), strongly immobilised
[3] = biological target: the molecule itself; assay: MALDI-TOF MS; active-Monalysin mixed with sinapic acid matrix; molecular weight of the multimer
[4] = biological target: the molecule itself; assay: high-speed atomic force microscopy; on mica surface in low salt buffer (30 mM NaCl, 10 mM sodium phosphate, pH 7.0), strongly immobilised

Row | Molecule | stoichiometry N [1] | stoichiometry N [2] | stoichiometry N [3] | stoichiometry N [4]
1 | endogenous pro-Monalysin (from UniProt Q1I8U1 1-271) (natural protein) | 16 | 8 |  | 
2 | B1 |  |  | ~8 | 8

Reference: article PMC7118224, “Molecular and Functional Analysis of Pore-Forming Toxin Monalysin From Entomopathogenic Bacterium Pseudomonas entomophila” (Frontiers in Immunology, 2020)
